Data taken from US20260151420A1.

Target: mouse LAG3 on Pmel-1 or Pmel-1xLy108 KO splenocytes (mouse) (UniProt Q61790)
Experiment: cell-based or functional assay

Chain of UniProt Q61790 (Q61790 24-521): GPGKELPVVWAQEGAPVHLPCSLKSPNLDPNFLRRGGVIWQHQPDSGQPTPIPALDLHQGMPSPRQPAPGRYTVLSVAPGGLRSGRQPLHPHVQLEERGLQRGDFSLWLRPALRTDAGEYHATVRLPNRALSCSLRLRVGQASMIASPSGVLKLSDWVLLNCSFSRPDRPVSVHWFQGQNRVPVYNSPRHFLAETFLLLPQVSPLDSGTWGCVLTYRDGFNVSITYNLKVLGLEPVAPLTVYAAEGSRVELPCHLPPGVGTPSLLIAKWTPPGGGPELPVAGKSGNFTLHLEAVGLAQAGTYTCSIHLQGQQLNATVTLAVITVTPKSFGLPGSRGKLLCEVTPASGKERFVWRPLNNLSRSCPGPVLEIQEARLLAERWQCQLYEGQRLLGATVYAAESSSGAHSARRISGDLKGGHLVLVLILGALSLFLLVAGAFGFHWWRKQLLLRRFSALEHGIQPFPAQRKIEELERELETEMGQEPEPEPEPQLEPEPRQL

- IFN-γ production (ELISA), Pmel-1×Ly108 KO cells with anti-LAG3 compared to Ly108-expressing cells: 3 fold
- IFN-γ secretion (ELISA) of Pmel-1 splenocytes activated with anti Lag3 (10 µg/ml), compared to no treatment: 1.5 fold
Substance: anti-LAG3 blocking antibody (BioXCell, clone: C9B7W, cat: BE0174)
